The record followed here is PMC5962103, “SHOC1 is a ERCC4-(HhH)2-like protein, integral to the formation of crossover recombination intermediates during mammalian meiosis”.

In this data set the target is SHOC1 570-1111 (Homo sapiens, UniProt Q5VXU9 570-1111). As to the kind of experiment: EMSA; 2 mM Mg2+; 20 mM Tris-HCl pH 7.4, 1 mM DTT, 2 mM MgCl2, 100 mM NaCl, 10 uM 32P-DNA (so in the source), 20 ul, 10 min at 37 C; 8% PAGE in 1x TAE. To be noted: protein: recombinant, label: 5'-32P on #1.
Chain of SHOC1 570-1111 (Q5VXU9 570-1111): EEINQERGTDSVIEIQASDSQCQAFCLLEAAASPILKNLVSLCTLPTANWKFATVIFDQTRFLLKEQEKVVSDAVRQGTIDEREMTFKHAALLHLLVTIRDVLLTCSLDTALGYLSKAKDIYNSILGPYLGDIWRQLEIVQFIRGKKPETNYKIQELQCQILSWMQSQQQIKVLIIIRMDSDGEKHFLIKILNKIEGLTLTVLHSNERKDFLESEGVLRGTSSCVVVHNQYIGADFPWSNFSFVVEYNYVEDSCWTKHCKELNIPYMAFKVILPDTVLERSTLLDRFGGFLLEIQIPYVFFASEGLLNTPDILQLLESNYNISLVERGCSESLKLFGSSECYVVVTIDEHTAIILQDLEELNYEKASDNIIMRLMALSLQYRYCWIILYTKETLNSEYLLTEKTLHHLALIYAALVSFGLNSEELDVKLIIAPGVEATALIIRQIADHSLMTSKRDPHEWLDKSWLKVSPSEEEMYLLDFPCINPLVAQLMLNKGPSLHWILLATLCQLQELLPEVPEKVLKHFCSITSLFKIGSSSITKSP

B1: single-stranded DNA (#1) (ssDNA)
DNA: ACGCTGCCGAATTCTACCAGTGCCTTGCTAGGACATCTTTGCCCACCTGCAGGTTCACCC
As for B1, under “single strand, 60 nt”, the binding result is reported as “binds”.

B2: D-loop (#1, #6, #7) (structured_DNA)
DNA 1: ACGCTGCCGAATTCTACCAGTGCCTTGCTAGGACATCTTTGCCCACCTGCAGGTTCACCC
DNA 2: GGGTGAACCTGCAGGTGGGCAGGAAGGCAAAATGCCGCAACTGGTAGAATTCGGCAGCGT
DNA 3: TTGCGGCATTTTGCCTTCCTCGGCCAGTGAATTCGAGCTC
B2: for the setting “D-loop 1:2 2:3, invading strand 3 pairs by its 5' 20 nt, 3' 20 nt tail”, the binding result is on record as “binds”.
